Source: the RNAGym collection of RNA variant scans (doi:10.1073/pnas.2313332121)

B1: TPR t1 (parent)
chain: GACCAAUCUGCCCUCAGAGCUCGAGAACAUCUUCGGAUGCAGAGGAGGCAGGCUUCGGUGGCGCGAUAGCGCCAACGUCCUCAACCUCCAAUGCAUCCCACCACAUGAUGAUGCCUGAAGAGCCUUGGUUUUUUG

Variants of: B1
Assay: polymerase ribozyme fitness, log enrichment relative to wild type (log ratio); higher = more active; in vitro selection for triplet polymerase activity
Procedure, shortened: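 Both subunits of a heterodimeric triplet polymerase ribozyme were given their own mutant library, built by PCR and transcribed. Each library was annealed with a biotinylated primer, the partner subunit and triplets, incubated frozen at −7 °C, and its extended constructs gel-excised, captured on streptavidin beads and amplified by RT-PCR, all in one round done in triplicate. Fitness is the logarithm of genotype enrichment relative to wild-type enrichment, with replicates averaged by inverse-variance weighting. That logarithm is base 2, and Illumina-sequenced genotypes needed ≥10 input reads and ≥1 read per output.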

| Variant | polymerase ribozyme fitness (log ratio) |
| --- | --- |
| A74G A95U | -0.0785 |
| C76A A118G | -0.854 |
| U78A C89G | -1.56 |
| U78A C94G A118U G120C U132A | -0.124 |
| A75U G110U A121U | -1.08 |
| C73G G117A | -0.876 |
| C73G G117C | -3.91 |
| C73G G117U | -3.09 |
| C73U U87A A91U U112A U116G | -4.55 |
| U78A C104A C114A | -5.24 |
| U78A U87A | -0.201 |
| A74U G110A C115U | -6.32 |
| U78C A83U G107U | -5.42 |
| C76U U78G | -0.0426 |
| C76G A118G G122U | -0.593 |
| G77U U78A A118U | -3.74 |
| G77A C97U | -0.317 |
| A75G C98U | -0.624 |
| C73G G120U | -0.78 |
| A75G U96A U106G | -3.41 |
| C76U C80G U96C G120C | -4.89 |

| Variant | polymerase ribozyme fitness (log ratio) |
| --- | --- |
| U78A C102A U112A | -1.54 |
| A74U C80G U112A | -5.78 |
| C76G U109C A119U C123A | -6.47 |
| G77A C114G U130C | -2.63 |
| C76U G120C | 0.737 |
| A75U C99U G120U | -4.3 |
| C73G G77U U125G U133G | -1.69 |
| A74U G93U G120A U125G U129G | -2.55 |
| C73U G110A G117A C124U | -4.95 |
| C73G C89A C104U A119U | -3.03 |
| C73U C79U U87A | -0.627 |
| A75G G117A | -1.28 |
| A75G A90C C101G | -4.09 |
| C73U U96A U116G U130A | -3 |
| A74U C114A U129A | -3.53 |
| C73U C123U | 0.98 |
| C73U C123G | 2.14 |
| G77U U109A U116G | -7.07 |
| A74C A95U G113U U125A | -4.37 |
| C73G C89A C99A G110C | -6.57 |
| C73U C79A A95G | -0.961 |

| Variant | polymerase ribozyme fitness (log ratio) |
| --- | --- |
| G77C G110A A118C | -1.65 |
| A74U C88A C104A | -2.72 |
| C73U | 0.0933 |
| U78A C114U | -1.83 |
| G77A U87A C101G | -2.13 |
| C73U U130A U131A | -0.703 |
| C76A C94A C101A | -2.64 |
| C76G G113A G122C G135U | -2.49 |
| A74C C97U G120A G122A | -1.46 |
| C73U C97A | -3.58 |
| C73U U116A | -3.52 |
| G77C C101A G127A | -2.16 |
| U78A C94A | -0.841 |
| U78A G113C U130C | -3.05 |
| G77A C115U G128A | -3.21 |
| U78A A118G | -0.761 |
| A74U G120A | 0.0292 |
| G77A U109C | -3 |
| G77A G93A A100G U112C U131A | -2.12 |
| U78A A95U U112G U133A | 0.61 |
| C76U A91G | -2.17 |

| Variant | polymerase ribozyme fitness (log ratio) |
| --- | --- |
| C76U A91C | -2.38 |
| A74C C124U | 1.08 |
| G77U U131G | -1.01 |
| G77A C80U | -0.237 |
| C73U A83U G110A G128U | -4.9 |
| G77C U131G | -0.172 |
| G77U C89U | -0.519 |
| G77A U92C G117C | -5.8 |
| U78A C85U U112A | 0.505 |
| G77C U78G U106A | -0.0347 |
| C76U U96G U116G | -3.28 |
| G77C U96A U125A | -3.38 |
| C73U C98U | -0.593 |
| A74U C123U | 0.766 |
| C76U U106C G128C | -3.51 |
| C76A C102A C123A | -3.55 |
| A74G A103G G117U U133G | -6.53 |
| C73U C102A U131A | -1.19 |
| C73U A100C | -1.34 |
| G77A A91G C114U | -2.54 |
